Measured values taken from article PMC6326742 (Cell, 2018).

Biological target: the molecule itself
Experiment: SEC-MALS

B1: Ptch1-B (stabilized mouse PTCH1 variant, SBP-tagged, purified) (receptor, UniProt Q61115 1-1291, looked up)
chain: MASAGNAAGALGRQAGGGRRRRTGGPHRAAPDRDYLHRPSYCDAAFALEQISKGKATGRKAPLWLRAKFQRLLFKLGCYIQKNCGKFLVVGLLIFGAFAVGLKAANLETNVEELWVEVGGRVSRELNYTRQKIGEEAMFNPQLMIQTPKEEGANVLTTEALLQHLDSALQASRVHVYMYNRQWKLEHLCYKSGELITETGYMDQIIEYLYPCLIITPLDCFWEGAKLQSGTAYLLGKPPLRWTNFDPLEFLEELKKINYQVDSWEEMLNKAEVGHGYMDRPCLNPADPDCPATAPNKNSTKPLDVALVLNGGCQGLSRKYMHWQEELIVGGTVKNATGKLVSAHALQTMFQLMTPKQMYEHFRGYDYVSHINWNEDRAAAILEAWQRTYVEVVHQSVAPNSTQKVLPFTTTTLDDILKSFSDVSVIRVASGYLLMLAYACLTMLRWDCSKSQGAVGLAGVLLVALSVAAGLGLCSLIGISFNAATTQVLPFLALGVGVDDVFLLAHAFSETGQNKRIPFEDRTGECLKRTGASVALTSISNVTAFFMAALIPIPALRAFSLQAAVVVVFNFAMVLLIFPAILSMDLYRREDRRLDIFCCFTSPCVSRVIQVEPQAYTEPMQSTVQLRTEYDPHTHVYYTTAEPRSEISVQPVTVTQDNLSCQSPESTSSTRDLLSQFSDSSLHCLEPPCTKWTLSSFAEKHYAPFLLKPKAKVVVILLFLGLLGVSLYGTTRVRDGLDLTDIVPRETREYDFIAAQFKYFSFYNMYIVTQKADYPNIQHLLYDLHKSFSNVKYVMLEENKQLPQMWLHYFRDWLQGLQDAFDSDWETGRIMPNNYKNGSDDGVLAYKLLVQTGSRDKPIDISQLTKQRLVDADGIINPSAFYIYLTAWVSNDPVAYAASQANIRPHRPEWVHDKADYMPETRLRIPAAEPIEYAQFPFYLNGLRDTSDFVEAIEKVRVICNNYTSLGLSSYPNGYPFLFWEQYISLRHWLLLSISVVLACTFLVCAVFLLNPWTAGIIVMVLALMTVELFGMMGLIGIKLSAVPVVILIASVGIGVEFTVHVALAFLTAIGDKNHRAMLALEHMFAPVLDGAVSTLLGVLMLAGSEFDFIVRYFFAVLAILTVLGVLNGLVLLPVLLSFFGPCPEVSPANGLNRLPTPSPEPPPSVVRFAVPPGHTNNGSDSSDSEYSSQTTVSGISEELRQYEAQQGAGGPAHQVIVEATENPVFARSTVVHPDSRHQPPLTPRQQPHLDSGSLSPGRQGQQPRRD
With B1 the “stoichiometry N” value was 2.
